Data from publication PMC3134462 (2011).
Where no end group is shown, it is not given here. [ ]: non-standard residue; d: D form. pY = N[C@@H](Cc1ccc(OP(=O)(O)O)cc1)C(=O)O

Tests used:
DLC-1 peptide (pY442) = molecular target: T1, DLC-1 peptide (pY442) (Homo sapiens); test: SPR
T1 chain: CSRLSI[pY]DNVPG

[1] = molecular target: T2, DLC-1 peptide (nonphosphorylated) (Homo sapiens); test: SPR
T2 chain: CSRLSIYDNVPG

Kd (DLC-1 peptide (pY442)): ~31 nM
Kd [1]: ~248 nM
B1: Tensin2 SH2 domain 1135-1248 (protein)
chain: DTSKFWYKPHLSRDQAIALLKDKDPGAFLIRDSHSFQGAYGLALKVATPPPSAQPWKGDPVEQLVRHFLIETGPKGVKIKGCPSEPYFGSLSALVSQHSISPISLPCCLRIPSK
